Several values for one entry are separate records, joined by “and”; a condition that tells them apart may be missing. Identical values can stand only once.
Tested on: eyes from Dutch Belted Rabbits (vitreoretinal interface)
Experiment: Ex vivo SEM scoring of residual vitreous (posterior vitreous detachment) after intravitreal injection in rabbit eyes
Parameters: key to Score of vitreo-retinal specimen, IN (Infra-Nasal Area) / Score of vitreo-retinal specimen, INL (Infra-Nasal Inferior Area) / Score of vitreo-retinal specimen, IC (Infra-Central Area) / Score of vitreo-retinal specimen, ICL (Infra-Central Lower Area) / Score of vitreo-retinal specimen, IT (Infra-Temporal Area) / Score of vitreo-retinal specimen, ITL (Infra-Temporal Lower Area): Grade 0 - extensive amount of residual vitreous; Grade 1 - moderate amount of residual vitreous; Grade 2 - mild amount of residual vitreous; Grade 3 - Inner retina visible through sparse collagen fibrils; Grade 4 - None to trace collagen fibrils covering inner retina
Description: The purpose of this ex vivo study was to compare the efficacy of 200 μg human-derived plasmin (Bausch & Lomb Incorporated's compound name “BOL-303209-X”) alone and in combination with triamcinolone acetonide (“TA,” a glucocorticoid anti-inflammatory medicament) on PVD in Dutch Belted Rabbits using scanning electron microscopy. This study was designed to use intravitreal injection of TA to enhance clinical observations for clear identification of PVD, to minimize possible inflammatory responses, and to assess whether improved efficacy could be achieved by the combined use of BOL-303209-X and TA.
Twelve (12) normal eyes from six (6) Dutch Belted Rabbits (both male and female) were used. All right eyes from 6 rabbits were injected with BOL-303209-X plus vehicle (Group 1, n=6 eyes) and all left eyes were injected with BOL-303209-X plus TA (Group 2, n=3, 2 mg TA/eye; Group 3, n=3, 4 mg TA/eye). BOL-303209-X was freshly prepared and kept on ice before use.
On the day of operation, rabbits were anesthetized, eyes disinfected and pupils dilated 15-20 minutes prior to injection. Each rabbit received two intravitreal injections. In Groups 1, 2, and 3, an initial 50-μl injection of BOL-303209-X at a dose of 200 μg per eye in a formulation of 5 mM epsilon-aminocaproic acid (“EACA”)/0.05% Tween 80/0.9% saline was given intravitreally in both the right and left eyes. In Group 1 (Control) a second 50-μl injection of formulation vehicle (0.05% Tween 80/0.05% hydroxypropyl methylcellulose (HPMC)/0.9% saline) was delivered in the right eyes 5 minutes after the first injection. In Groups 2 and 3, a formulation containing TA at a dose of either 2 mg (Group 2) or 4 mg (Group 3) was injected into the left eyes in the same way.
Eyes were examined with a slit-lamp biomicroscope assisted with a Volk Lens at 4 days prior to injection for baseline documentation. To evaluate the efficacy of BOL-303209-X, all eyes were directly observed under a surgical microscope for 5 minutes after injection for possible changes in the vitreo-retina. The injected eyes were followed up at 7 and 14 days after injection. Attention was paid particularly to the vitreoretinal interface for signs of PVD and to the retina for signs of toxicity during slit-lamp examination.
Fourteen days after injection the in-life phase of the study was terminated, the rabbits were euthanized by over dose of pentobarbital, their eyes enucleated and fixed in Karnovsky's solution for at least 24 hours. The fixed eyes were processed further for SEM. The posterior pole of each eye was examined. Micrographs at magnifications ranging from 100-2,500× of each specimen or up to 10,000× in some cases were examined to assess the extent of posterior vitreous detachment. The amount of residual vitreous was scored on a scale of 0-4 with a score of 4 representing complete removal of vitreous from the inner retina according to a standard protocol.
After enucleation, the eyes were trimmed of external muscle, fat, and connective tissue, and cut using a razor blade about 3 mm behind the limbus to facilitate penetration of fixative. The eyes were placed in ice-cold fixative consisting of 2% formaldehyde (from paraformaldehyde), 2.5% glutaraldehyde, in 0.1 phosphate buffer, with 0.1 M sucrose and 0.5 mM CaCl2 added, pH 7.2. Each eye was immersed in approximately 40 ml fixative. After one hour, the fixative was exchanged with fresh fixative and the eyes were transported to B&L and stored refrigerated in fixative.
Tissue specimen that included sclera, choroid, retina with the optic nerve (approximately 1 cm in diameter) were surgically removed from each eye. These were dehydrated though a graded ethanol series (30%, 50%, 70%, 85%, 95%, 100%) for thirty minutes per dilution. Dehydrated samples were dried to the critical point (Samdri-PVT-3B, Tousimis, Rockville, Md.) and mounted on aluminum SEM pucks with colloidal graphite (Ted Pella, Inc, Redding, Calif.). […]

[1] = Group 1: 200 μg BOL-303209-X per eye + vehicle, SEM day 14, scale 0-4, one value per eye

B1: BOL-303209-X: human-derived plasmin (Bausch & Lomb Incorporated's compound name “BOL-303209-X”) (protein, UniProt P00747 20-580; P00747 581-810, looked up)
Plasmin heavy chain A: EPLDDYVNTQGASLFSVTKKQLGAGSIEECAAKCEEDEEFTCRAFQYHSKEQQCVIMAENRKSSIIIRMRDVVLFEKKVYLSECKTGNGKNYRGTMSKTKNGITCQKWSSTSPHRPRFSPATHPSEGLEENYCRNPDNDPQGPWCYTTDPEKRYDYCDILECEEECMHCSGENYDGKISKTMSGLECQAWDSQSPHAHGYIPSKFPNKNLKKNYCRNPDRELRPWCFTTDPNKRWELCDIPRCTTPPPSSGPTYQCLKGTGENYRGNVAVTVSGHTCQHWSAQTPHTHNRTPENFPCKNLDENYCRNPDGKRAPWCHTTNSQVRWEYCKIPSCDSSPVSTEQLAPTAPPELTPVVQDCYHGDGQSYRGTSSTTTTGKKCQSWSSMTPHRHQKTPENYPNAGLTMNYCRNPDADKGPWCFTTDPSVRWEYCNLKKCSGTEASVVAPPPVVLLPDVETPSEEDCMFGNGKGYRGKRATTVTGTPCQDWAAQEPHRHSIFTPETNPRAGLEKNYCRNPDGDVGGPWCYTTNPRKLYDYCDVPQCAAPSFDCGKPQVEPKKCPGR
Plasmin light chain B: VVGGCVAHPHSWPWQVSLRTRFGMHFCGGTLISPEWVLTAAHCLEKSPRPSSYKVILGAHQEVNLEPHVQEIEVSRLFLEPTRKDIALLKLSSPAVITDKVIPACLPSPNYVVADRTECFITGWGETQGTFGAGLLKEAQLPVIENKVCNRYEFLNGRVQSTELCAGHLAGGTDSCQGDSGGPLVCFEKDKYILQGVTSWGLGCARPNKPGVYVRVSRFVTWIEGVMRNN
modifications: plasmin plasma-derived
Group 1 (n=6 eyes): 200 μg BOL-303209-X per eye + vehicle
  n ≧ 3, number of eyes of the group with mean score of 3 or higher: 2
Group 1 (n=6 eyes): 200 μg BOL-303209-X per eye + vehicle, SEM day 14, scale 0-4
  Mean score of the group: 2.6
[1]
  Mean score of 6 inferior fields, per eye: 3.2 and 2.8 and 2.5 and 1.7 and 3.0
  Score of vitreo-retinal specimen, IC (Infra-Central Area): 4 and 3
  Score of vitreo-retinal specimen, ICL (Infra-Central Lower Area): 3 and 2 and 1
  Score of vitreo-retinal specimen, INL (Infra-Nasal Inferior Area): 3 and 1
  Score of vitreo-retinal specimen, IT (Infra-Temporal Area): 3 and 2
  Score of vitreo-retinal specimen, ITL (Infra-Temporal Lower Area): 3 and 2 and 1
Group 1: 200 μg BOL-303209-X per eye + vehicle, per-eye count
  n ≧ 3 (eye with mean score of 3 or higher), per eye: 1
Group 1: 200 μg BOL-303209-X per eye intravitreal + second injection of vehicle, SEM 14 days after injection, scale 0-4, one value per eye
  Score of vitreo-retinal specimen, IN (Infra-Nasal Area): 3 and 2
